Measurements reported in US20250277026A1 (NOVAROCK BIOTHERAPEUTICS, published 2025).

How the values were obtained:
[1] = molecular target: T1, human Claudin-6 (human, UniProt P56747 1-220); test: FACS, Claudin-6-HEK293 cells, 10 µg/ml, hybridoma-purified antibody
T1 construct: also called CLDN6
T1 sequence: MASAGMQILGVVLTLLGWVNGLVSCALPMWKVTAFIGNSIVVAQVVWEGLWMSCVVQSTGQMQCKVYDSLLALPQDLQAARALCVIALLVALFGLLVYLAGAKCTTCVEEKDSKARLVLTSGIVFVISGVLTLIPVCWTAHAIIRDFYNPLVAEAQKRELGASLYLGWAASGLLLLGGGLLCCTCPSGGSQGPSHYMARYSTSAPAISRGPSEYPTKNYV

[2] = molecular target: T2, human Claudin-9 (human, UniProt O95484 1-217); test: FACS, Claudin-9-HEK293 cells, 10 µg/ml, hybridoma-purified antibody
T2 construct: On transfected HEK293 cells; also called CLDN9
T2 sequence: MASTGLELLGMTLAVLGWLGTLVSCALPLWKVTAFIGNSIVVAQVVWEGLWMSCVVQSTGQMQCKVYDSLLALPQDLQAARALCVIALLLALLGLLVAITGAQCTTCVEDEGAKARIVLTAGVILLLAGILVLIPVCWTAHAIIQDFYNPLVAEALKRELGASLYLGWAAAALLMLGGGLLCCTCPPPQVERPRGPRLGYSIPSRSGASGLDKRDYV

[3] = molecular target: T1, human Claudin-6; test: FACS dose response, Claudin-6-CHO-K1 cells, hybridoma-purified antibody
Protocol: (§1) The anti-CLDN6 antibodies were also evaluated for their binding affinity to Claudin-6 overexpressing cell lines by FACS.

[4] = molecular target: T1, human Claudin-6; test: FACS dose response, Claudin-6-HEK293 cells, hybridoma-purified antibody
Protocol: as §1

[5] = molecular target: T1, human Claudin-6; test: FACS, NEC8 cells (endogenous CLDN6), 10 µg/ml, hybridoma-purified antibody
Protocol: (§2) Cells were fixed with 2% PFA (Alfa Aesar, catalog number: J61899) for 15 minutes at 4° C. and then washed. […] Flow cytometric analyses were performed on a flow cytometry instrument (Intellicyte, IQue plus, Sartorius).

[6] = molecular target: T1, human Claudin-6; test: FACS dose response, NEC8 cells (endogenous CLDN6), hybridoma-purified antibody
Protocol: as §2, §1

[7] = molecular target: T3, human Claudin-3 (human, UniProt O15551 1-220); test: FACS, CHO-K1 cells overexpressing Claudin-3 (CHO-K1-CLDN3), serial dilution, MFI
T3 construct: On transfected CHO-K1 cells, or endogenous on MCF7 cells; also called CLDN3
T3 sequence: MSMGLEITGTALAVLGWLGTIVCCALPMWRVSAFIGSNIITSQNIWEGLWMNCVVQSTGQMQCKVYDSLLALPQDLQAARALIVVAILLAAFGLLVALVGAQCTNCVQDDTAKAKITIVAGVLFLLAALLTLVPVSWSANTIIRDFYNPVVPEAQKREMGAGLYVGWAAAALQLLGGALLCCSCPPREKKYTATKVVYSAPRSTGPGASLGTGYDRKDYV

fold MFI over isotype control [1]: 60 fold | fold MFI over isotype control [2]: 47 fold | EC50 [3]: 3.06 nM | EC50 [4]: 4.11 nM | fold MFI over isotype control [5]: 23 fold | EC50 [6]: 5.63 nM
B1: NR.N6.Ab6 (antibody, V domains shown)
VH: QVQLQESGPGLVKPSETLSLTCTVSGGSISSYYWSWIRQPPGKGLEWIGYIYYSGSTNYNPSLKSRVTISLDTSKNQFSLKLTSVTAADTAVYYCARGSIPVAGTSYFYYYGMDVWGQGTTVTVSS
VL: EIVMTQSPATLSLSPGERATLSCRASQSVSSSYLSWYQQKPGQAPRLLIYGASTRATGIPARFSGSGSGTDFTLTISSLQPEDFAVYYCQQDYNLPWTFGQGTKVEIK
binding result [7]: no binding (tested: log 1.8 (about 67 nM))
